This is an account of results in patent US20230340055A1 (published 2023).

Assay [1] addresses T1, IL-2Rαβγ (trimeric high-affinity IL-2 receptor), human, on cells (human, UniProt P01589 22-272; P14784 27-551; P31785 23-369).
T1 sequence (looked up) 1: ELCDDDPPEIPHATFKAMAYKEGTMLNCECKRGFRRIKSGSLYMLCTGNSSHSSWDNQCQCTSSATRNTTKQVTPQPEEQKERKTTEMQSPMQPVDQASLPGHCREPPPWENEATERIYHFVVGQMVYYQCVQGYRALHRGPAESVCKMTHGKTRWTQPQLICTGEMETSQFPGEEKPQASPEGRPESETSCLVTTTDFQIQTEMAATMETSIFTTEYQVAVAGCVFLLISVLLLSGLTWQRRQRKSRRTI
T1 sequence (looked up) 2: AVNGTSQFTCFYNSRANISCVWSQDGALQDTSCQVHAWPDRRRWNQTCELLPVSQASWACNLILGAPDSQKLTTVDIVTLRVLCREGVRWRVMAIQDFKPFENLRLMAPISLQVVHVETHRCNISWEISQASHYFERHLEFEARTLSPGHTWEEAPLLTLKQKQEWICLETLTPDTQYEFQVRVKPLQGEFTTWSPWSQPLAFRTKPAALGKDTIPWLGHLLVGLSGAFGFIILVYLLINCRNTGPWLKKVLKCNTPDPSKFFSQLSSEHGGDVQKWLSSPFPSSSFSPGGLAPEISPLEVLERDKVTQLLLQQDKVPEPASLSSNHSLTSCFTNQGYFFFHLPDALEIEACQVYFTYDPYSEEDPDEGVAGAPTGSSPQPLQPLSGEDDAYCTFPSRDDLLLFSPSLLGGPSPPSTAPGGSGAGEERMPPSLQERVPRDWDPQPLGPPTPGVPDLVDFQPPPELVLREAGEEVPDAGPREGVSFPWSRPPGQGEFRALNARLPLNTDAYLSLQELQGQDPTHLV
T1 sequence (looked up) 3: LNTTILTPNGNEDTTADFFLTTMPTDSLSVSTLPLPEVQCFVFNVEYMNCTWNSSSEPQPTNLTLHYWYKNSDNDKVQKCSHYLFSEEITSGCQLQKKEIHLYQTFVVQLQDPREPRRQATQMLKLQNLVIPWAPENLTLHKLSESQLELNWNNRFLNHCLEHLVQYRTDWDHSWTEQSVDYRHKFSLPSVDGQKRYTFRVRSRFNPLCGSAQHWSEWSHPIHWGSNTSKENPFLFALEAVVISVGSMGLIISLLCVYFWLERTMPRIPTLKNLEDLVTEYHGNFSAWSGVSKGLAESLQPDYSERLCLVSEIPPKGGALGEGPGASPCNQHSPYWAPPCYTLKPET
The assay can be described thus: cell-based or functional assay.

Assay [2] addresses T2, IL-2-Rα/β/γ on the murine CTLL-2 T lymphocyte cell line (murine, UniProt P01590 22-268; P16297 27-539; P34902 23-369).
T2 sequence (looked up) 1: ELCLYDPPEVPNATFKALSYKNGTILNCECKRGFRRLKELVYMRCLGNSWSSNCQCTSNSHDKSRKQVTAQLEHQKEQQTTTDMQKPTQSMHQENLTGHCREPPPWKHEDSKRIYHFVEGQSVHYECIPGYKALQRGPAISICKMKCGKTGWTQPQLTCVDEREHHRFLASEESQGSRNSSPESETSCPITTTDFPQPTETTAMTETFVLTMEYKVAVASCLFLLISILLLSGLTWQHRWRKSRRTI
T2 sequence (looked up) 2: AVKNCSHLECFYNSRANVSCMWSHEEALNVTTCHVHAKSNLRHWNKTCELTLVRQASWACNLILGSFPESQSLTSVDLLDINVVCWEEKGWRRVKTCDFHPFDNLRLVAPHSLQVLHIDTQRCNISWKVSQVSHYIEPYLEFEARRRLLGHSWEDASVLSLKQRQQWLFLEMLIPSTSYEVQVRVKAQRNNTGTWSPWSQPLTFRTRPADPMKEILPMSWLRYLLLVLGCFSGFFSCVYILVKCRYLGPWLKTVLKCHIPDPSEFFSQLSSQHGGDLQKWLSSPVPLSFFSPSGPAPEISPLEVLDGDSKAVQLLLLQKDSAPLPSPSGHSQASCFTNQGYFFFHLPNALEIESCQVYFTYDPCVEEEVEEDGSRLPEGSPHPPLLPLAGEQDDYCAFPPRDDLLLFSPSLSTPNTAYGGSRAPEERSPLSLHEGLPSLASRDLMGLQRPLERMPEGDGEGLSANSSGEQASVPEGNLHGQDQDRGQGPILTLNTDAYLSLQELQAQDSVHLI
T2 sequence (looked up) 3: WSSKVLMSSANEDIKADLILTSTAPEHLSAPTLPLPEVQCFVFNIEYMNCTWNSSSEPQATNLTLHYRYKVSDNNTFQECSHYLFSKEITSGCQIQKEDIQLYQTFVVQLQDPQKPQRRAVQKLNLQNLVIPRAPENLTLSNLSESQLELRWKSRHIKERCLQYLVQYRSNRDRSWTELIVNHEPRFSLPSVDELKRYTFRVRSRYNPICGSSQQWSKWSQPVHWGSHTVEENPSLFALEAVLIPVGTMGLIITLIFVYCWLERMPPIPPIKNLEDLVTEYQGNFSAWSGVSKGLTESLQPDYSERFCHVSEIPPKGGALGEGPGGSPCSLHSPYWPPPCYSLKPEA
The assay can be described thus: cell-based or functional assay.

For assay [3], the target named is T3, Human IL-2 Receptor beta, Fc-Tag (Symansis, New Zealand) (human, UniProt P14784 27-240).
T3 construct: extracellular domain; Bought reagent; also called IL-2Rβ; IL-2Rβ-Fc; not shown: Fc-Tag (captured by anti-human IgG (Fc) antibody)
T3 sequence (looked up): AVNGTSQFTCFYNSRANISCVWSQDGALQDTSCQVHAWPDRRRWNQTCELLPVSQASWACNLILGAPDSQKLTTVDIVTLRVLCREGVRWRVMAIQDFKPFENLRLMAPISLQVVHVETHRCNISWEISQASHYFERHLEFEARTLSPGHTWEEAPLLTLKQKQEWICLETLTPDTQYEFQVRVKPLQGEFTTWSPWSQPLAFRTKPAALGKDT
The assay can be described thus: SPR (Biacore T200), IL-2Rβ-Fc captured on anti-human IgG (Fc) CM5 chip, IL-2 as analyte, multi-cycle kinetics, 1:1 kinetic fit, 25 C. The protocol:
For the determination of binding kinetics to IL-2Rβ the following chip preparation was used: Human IL-2 Receptor beta, Fc-Tag (Symansis, New Zealand) was diluted in HBS-EP running buffer (GE Healthcare, 10 mM HEPES, 150 mM NaCl, 3 mM EDTA, 0.05% Surfactant P20, pH 7.4) to around 0.25 µg/mL and immobilized at a flow rate of 50 µL/min for 60 s to achieve 300 - 330 response units (RU).
(50 µL/min flow rate, 60 s contact time, 300 s dissociation time). Double referenced data (subtracted data from the reference flow cell and the buffer only samples) was analysed via a kinetic fit (1:1 binding model) to determine KD, kₐ and kd. Regeneration after each cycle was performed with 3 M MgCl₂.
Background: Surface plasmon resonance follows binding to a sensor surface in real time, without labels.

B1: protein 6 (ligand)
chain: APTSSSTKKTQLQLEHLLLDLQMILNGINNYKNPKLTFGNSTKFYMPKKATELKHLQCLEEELKPLEEVLNLAQSKNFHLRPRDLISNINVIVLELKGSETTFMCEYADETATIVEFLNRWITFSQSIISTLT
modifications: glycosylated (same sequence with the N-glycosylation motif FGNST as protein 1f); glycan sites not analysed separately for protein 6
Usually Kd stands for the free concentration of one partner at which half of the binding sites on the other are occupied at equilibrium, for simple one-to-one binding. Higher therefore signals weaker binding. Consider B1, for which the “EC50, pSTAT5 MFI, Treg (human PBMCs)” value in assay [1] was 38 ng/mL. Besides, in assay [2], the “ratio of Ratio protein 6 to Ratio protein 5a (EC50 CTLL-2 cells / EC50 HH cells)” value is more than 250. In assay [3], the Kd came to 0.74 µM.
